Consider one molecule from patent publication US9579367B2.

This assay concerns the target tissue plasminogen activator (tPA).

B1: Xa-K (FXa chemically modified, via a histidine residue in its active site, with a C-terminal lysine tethered by a PEG4 spacer) (enzyme)
light: ANSFLEEMKKGHLERECMEETCSYEEAREVFEDSDKTNEFWNKYKDGDQCETSPCQNQGKCKDGLGEYTCTCLEGFEGKNCELFTRKLCSLDNGDCDQFCHEEQNSVVCSCARGYTLADNGKACIPTGPYPCGKQTLER
heavy: IVGGQECKDGECPWQALLINEENEGFCGGTILSEFYILTAAHCLYQAKRFKVRVGDRNTEQEEGGEAVHEVEVVIKHNRFTKETYDFDIAVLRLKTPITFRMNVAPACLPERDWAESTLMTQKTGIVSGFGRTHEKGRQSTRLKMLEVPYVDRNSCKLSSSFIITQNMFCAGYDTKQEDACQGDSGGPHVTRFKDTYFVTGIVSWGEGCARKGKYGIYTKVTAFLKWIDRSMKTRGLPKAKSHAPEVITSSPLK
modifications: active-site histidine (position 276 in Table A, UniProt P00742 numbering) covalently linked to (D)Phe-Pro-Arg-CH2- carrying a thiol-maleimide-PEG4 spacer with a C-terminally tethered lysine (Lys-mPEG4)
On to B1, for which the time to achieve 50% lysis of a plasma clot (turbidity, OD405nm) was 10 fold.
